Assay results taken from patent US11702666B2, “Cell-based assay for determining activity in the retinoblastoma pathway” (Medical Diagnostic Laboratories, LLC, priority 2017, dated 2023).
Where a chain is given by its changes, count along the chain named. Names may count otherwise.

B1: Rb A488V: Rb mutant from COSMIC database (protein, UniProt P06400 2-928, looked up, variant A488V)
Retinoblastoma-associated …: PPKTPRKTAATAAAAAAEPPAPPPPPPPEEDPEQDSGPEDLPLVRLEFEETEEPDFTALCQKLKIPDHVRERAWLTWEKVSSVDGVLGGYIQKKKELWGICIFIAAVDLDEMSFTFTELQKNIEISVHKFFNLLKEIDTSTKVDNAMSRLLKKYDVLFALFSKLERTCELIYLTQPSSSISTEINSALVLKVSWITFLLAKGEVLQMEDDLVISFQLMLCVLDYFIKLSPPMLLKEPYKTAVIPINGSPRTPRRGQNRSARIAKQLENDTRIIEVLCKEHECNIDEVKNVYFKNFIPFMNSLGLVTSNGLPEVENLSKRYEEIYLKNKDLDARLFLDHDKTLQTDSIDSFETQRTPRKSNLDEEVNVIPPHTPVRTVMNTIQQLMMILNSASDQPSENLISYFNNCTVNPKESILKRVKDIGYIFKEKFAKAVGQGCVEIGSQRYKLGVRLYYRVMESMLKSEEERLSIQNFSKLLNDNIFHMSLLVCALEVVMATYSRSTSQNLDSGTDLSFPWILNVLNLKAFDFYKVIESFIKAEGNLTREMIKHLERCEHRIMESLAWLSDSPLFDLIKQSKDREGPTDHLESACPLNLPLQNNHTAADMYLSPVRSPKKKGSTTRVNSTANAETQATSAFQTQKPLKSTSLSLFYKKVYRLAYLRLNTLCERLLSEHPELEHIIWTLFQHTLQNEYELMRDRHLDQIMMCSMYGICKVKNIDLKFKIIVTAYKDLPHAVQETFKRVLIKEEEYDSIIVFYNSVFMQRLKTNILQYASTRPPTLSPIPHIPRSPYKFPSSPLRIPGGNIYISPLKSPYKISEGLPTPTKMTPRSRILVSIGESFGTSEKFQKINQMVCNSDRVLKRSAEGSNPPKPLKKLRFDIEGSDEADGSKHLPGESKFQQKLAEMTSTRTRMQKQKMNDSMDTSNKEEK
B2: Rb R656W: Rb mutant from COSMIC database (protein, UniProt P06400 2-928, looked up, variant R656W)
Retinoblastoma-associated …: B1 Retinoblastoma-associated … with V487A, R655W
B3: Rb R798Q: Rb mutant from COSMIC database (protein, UniProt P06400 2-928, looked up, variant R798Q)
Retinoblastoma-associated …: B1 Retinoblastoma-associated … with V487A, R797Q
B4: Rb I724N: Rb mutant from COSMIC database (protein, UniProt P06400 2-928, looked up, variant I724N)
Retinoblastoma-associated …: B1 Retinoblastoma-associated … with V487A, I723N
B5: Rb L665R: Rb mutant from COSMIC database (protein, UniProt P06400 2-928, looked up, variant L665R)
Retinoblastoma-associated …: B1 Retinoblastoma-associated … with V487A, L664R
B6: Rb R798W: Rb mutant from COSMIC database (protein, UniProt P06400 2-928, looked up, variant R798W)
Retinoblastoma-associated …: B1 Retinoblastoma-associated … with V487A, R797W
B7: Rb R698W: Rb mutant from COSMIC database (protein, UniProt P06400 2-928, looked up, variant R698W)
Retinoblastoma-associated …: B1 Retinoblastoma-associated … with V487A, R697W
B8: Rb V654M: Rb mutant from COSMIC database (protein, UniProt P06400 2-928, looked up, variant V654M)
Retinoblastoma-associated …: B1 Retinoblastoma-associated … with V487A, V653M
B9: Rb R621S: Rb mutant from COSMIC database (protein, UniProt P06400 2-928, looked up, variant R621S)
Retinoblastoma-associated …: B1 Retinoblastoma-associated … with V487A, R620S
B10: Rb E440K: Rb mutant from COSMIC database (protein, UniProt P06400 2-928, looked up, variant E440K)
Retinoblastoma-associated …: B1 Retinoblastoma-associated … with E439K, V487A
B11: Rb I680T: Rb mutant from COSMIC database (protein)
chain: MVFTLEDFVGDWEQTAAYNLDQVLEQGGVSSLLQNLAVSVTPIQRIVRSGENALKIDIHVIIPYEGLSADQMAQIEEVFKVVYPVDDHHFKVILPYGTLVIDGVTPNMLNYFGRPYEGIAVFDGKKITVTGTLWNGNKIIDERLITPDGSMLFRVTINSGSSGGGGSGGGGSSGGAQGNSNTIQQLMMILNSASDQPSENLISYFNNCTVNPKESILKRVKDIGYIFKEKFAKAVGQGCVEIGSQRYKLGVRLYYRVMESMLKSEEERLSIQNFSKLLNDNIFHMSLLACALEVVMATYSRSTSQNLDSGTDLSFPWILNVLNLKAFDFYKVIESFIKAEGNLTREMIKHLERCEHRIMESLAWLSDSPLFDLIKQSKDREGPTDHLESACPLNLPLQNNHTAADMYLSPVRSPKKKGSTTRVNSTANAETQATSAFQTQKPLKSTSLSLFYKKVYRLAYLRLNTLCERLLSEHPELEHITWTLFQHTLQNEYELMRDRHLDQIMMCSMYGICKVKNIDLKFKIIVTAYKDLPHAVQETFKRVLIKEEEYDSIIVFYNSVFMQRLKTNILQYASTRPPTLSPIPHIPRSPYKFPSSPLRIPGGNIYISPLKSPYKISEGLPTPTKMTPRSRILVSIGESFGTSEKFQKINQMVCNSDRVLKRSAEGSNPPKPLKKLRFDIEGSDEADGSKHLPGESKFQQKLAEMTSTRTRMQKQKMNDSMDTSNKEEK

Legend:
[1] = tested on: Rb/E2F1-Dp-1 complex; assay: CDK6 mutant activity / drug resistance in NanoBiT assay, stable cell line #11; assay type: cell-based, human; details: for Luc. activity (/wt): predicted drug resistant CDK6 mutants, relative to WT; for Luc activity (/wt): CDK6 mutants, compared to the WT (being 100%)
Protocol: A linear expression cassette of mutated CDK4 or CDK6 was generated by PCR mediated overlapping extension method. A pair of forward and reverse primers containing the targeted mutations was designed. The mutated codon was located in the middle of a primer flanked by 18-21 nucleotides on each side. Two PCRs (named as PCR #1 and PCR #2 in FIG. 1) were performed using UF-CMV forward and mutated reverse primers, or mutated forward and BGH-UR primers. The PCR products were cleaned up by ExoSAP-IT® (Affymetrix) to remove unconsumed dNTPs and primers. The treated PCR products were mixed together followed by dilution with water. A second round of PCR was performed using the diluted PCR mixture, and the UF and UR primers (FIG. 1). The amplified products were gel-purified. The DNA concentration was quantitated by the optical density at 260 nm using Nanodrop. The targeted mutations were incorporated in the CDK4 or CDK6 genes during the PCR mediated overlapping extension method. The introduced mutations were confirmed by the DNA sequencing.
To examine the ability of the assay to detect variants in CDK4 or CDK6 that affect function, kinase dead mutants and COSMIC (Catalogue Of Somatic Mutations in cancer) unknown mutants were created. For comparison, hyperactive CDK4 or CDK6 mutants known to be hyperactive due to less binding to natural inhibitor p16 were also created. The mutations in CDK4 or CDK6 were created by site-directed mutagenesis. WT or mutated CDK4 or CDK6 along with the CyclinD1 and SB-Rb were co-transfected, under similar conditions as previously indicated (see FIG. 9).
Computer modeling was used to reveal the drug-binding pocket and predict drug-resistant mutants. The mutations in CDK4 and CDK6 were created by site-directed mutagenesis. WT or mutated CDK4 or CDK6 along with the CyclinD1 and SB-Rb was co-transfected into #11 cell line, under the same conditions as previously indicated. […] Dose response curves are presented on FIG. 13A and FIG. 13B. Activity of other mutants was very similar to the WT or KD.
CDK4 and CDK6 mutants with known function and unknown function taken from the COSMIC database were analyzed in the present assay and are summarized in Table 7A and Table 7B. The mutants were classified according to their activity. Table 7A and Table 7B also show the number of counts per mutant in the COSMIC database, type of cancer, and luciferase activity compared to the WT (being 100%).

[2] = tested on: E2F1/Dp-1 heterodimer; assay: Rb activity assay (LB-Rb with E2F1-SB, DP1 split luciferase); assay type: cell-based, human; set-up: key to Observed activity: N—no activity; A—active as WT; R—reduced activity compared to the WT; details: Rb mutants; for % (/wt): activity relative to WT
Description: An assay that could measure the interaction between Rb, E2F1, and Dp-1 was developed. Since Dp-1 forms a heterodimer with E2F1 and that interaction is crucial for Rb/E2F1 binding, the assay was comprised of three components. When two proteins (Rb and E2F1) are in close proximity or in complex, a light signal was observed. For the purposes of the current assay, split-luciferase complementation was used to measure the interaction between Rb and E2F1. The NanoBiT assay system by Promega (Madison, Wis.; Dixon et al., 2015, ACS ChemBiol) was used in our split luciferase complementation design.
FIG. 16 depicts the design of a signal system to measure Rb activity. Under basal conditions inside the cell, Rb was active and interacted with the E2F1/Dp-1 heterodimer. For this assay design, cDNAs of Rb linked to different parts of the luciferase protein, either termed as the “Small BiT” (SB), or “Large BiT” (LB) and E2F1 linked to the opposite portion of the luciferase protein were created. When Rb and E2F1/Dp-1 bind, the NanoBiT parts of the luciferase form a complex and emitted a light signal when the luciferase (NanoGlo) substrate was added.
Using the described assay design, HEK293 CDK DKO cells were transiently transfected with different combinations of SB-Rb or LB-Rb and E2F1-LB or E2F1-SB components containing C-terminal and N-terminal constructs (FIG. 17). Relative intensities generated are presented in FIG. 17 as relative luminescence units (RLU). The data represents a sample experiment where each condition was performed in triplicate and represent mean+SD.
The LB-Rb and E2F1-SB with Dp-1 were tested for Rb activity using known Rb null mutants: R661W and C706F (FIG. 18A). […] Rb in-frame (del35) and out-of frame (del1) deletion mutants (FIG. 18B) were constructed and the observed luciferase activity was close to 0, in particular for del1 mutant, because Rb-E2F1 binding was destroyed.
Within the provided assay design, stable cell lines using the HEK293 CDK DKO cell parent line expressing E2F1-SB and Dp-1 were produced. After selection and screening for positive clones using an LB-Rb-mediated increase in signal, four stable single cell clones were selected and evaluated using different Rb mutants (FIGS. 19A and 19B). The response to E2F1 interaction was also checked by using the plasmid and linear form of DNA. Cell line #37 was selected for all our experiments in assay development due to its favorable response.
The conditions of the assay were further optimized by analyzing different cell numbers and Rb concentrations (FIG. 20). Based on the data, it was decided to use 0.2×10^6 cells/ml and 70 ng of DNA in the assay.
Known null and out/in-frame deletion mutants disrupting E2F1 binding and unknown COSMIC mutants were created to examine the ability of the assay to detect variants in Rb that affect function. We transfected WT or mutated Rb using similar conditions as previously indicated (FIG. 20). […] In addition, the null C706F and deletion (del1) mutants presented a signal close to zero as expected for loss of function mutants that disrupt E2F1 interaction. […] This confirmed that the assay was capable of determining the relative activity level of Rb mutants. The data is provided in Luminescence (RLU) of a single experiment with each condition performed in triplicate and represent average+SD.

E2F1/Dp-1 heterodimer, sequence (Q01094 58-437 limits assumed): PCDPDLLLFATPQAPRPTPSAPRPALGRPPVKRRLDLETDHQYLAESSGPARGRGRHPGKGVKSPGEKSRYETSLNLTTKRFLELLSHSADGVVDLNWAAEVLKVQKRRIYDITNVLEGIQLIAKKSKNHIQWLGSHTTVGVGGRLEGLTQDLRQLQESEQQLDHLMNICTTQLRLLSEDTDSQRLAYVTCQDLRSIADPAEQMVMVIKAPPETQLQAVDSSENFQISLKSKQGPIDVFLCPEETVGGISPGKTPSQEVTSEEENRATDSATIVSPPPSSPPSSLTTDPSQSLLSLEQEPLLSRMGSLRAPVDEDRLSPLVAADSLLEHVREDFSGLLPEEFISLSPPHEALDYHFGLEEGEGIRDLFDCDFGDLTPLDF
E2F1/Dp-1 heterodimer, sequence (Q14186 whole entry, further chain): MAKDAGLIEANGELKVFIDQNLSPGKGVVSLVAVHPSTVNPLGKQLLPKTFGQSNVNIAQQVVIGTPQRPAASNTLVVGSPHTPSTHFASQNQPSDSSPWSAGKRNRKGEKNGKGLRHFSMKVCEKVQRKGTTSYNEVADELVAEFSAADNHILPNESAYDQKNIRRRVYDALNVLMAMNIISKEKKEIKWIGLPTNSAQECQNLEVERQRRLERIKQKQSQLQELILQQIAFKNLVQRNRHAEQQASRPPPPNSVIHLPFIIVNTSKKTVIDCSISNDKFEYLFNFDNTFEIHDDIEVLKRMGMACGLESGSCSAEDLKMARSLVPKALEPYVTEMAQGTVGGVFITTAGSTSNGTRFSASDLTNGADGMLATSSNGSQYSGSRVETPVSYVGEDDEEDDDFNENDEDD

| Molecule | Luc. activity (/wt) [1] | Luc activity (/wt) [1] | Observed activity [2] | % (/wt) [2] |
| --- | --- | --- | --- | --- |
| CDK6 A41V: predicted drug resistant CDK6 mutant | 132% |  |  |  |
| CDK6 D104N: predicted drug resistant CDK6 mutant | 138% |  |  |  |
| CDK6 D163N: CDK6 mutant, literature kinase dead |  | 408% |  |  |
| CDK6 F98I: predicted drug resistant CDK6 mutant | 176% |  |  |  |
| CDK6 H100Y: predicted drug resistant CDK6 mutant | 126% |  |  |  |
| CDK6 I19L: predicted drug resistant CDK6 mutant | 129% |  |  |  |
| CDK6 K43M: CDK6 mutant, literature kinase dead |  | 468% |  |  |
| CDK6 L152V: predicted drug resistant CDK6 mutant | 114% |  |  |  |
| CDK6 P199L: CDK6 mutant from COSMIC database |  | 565% |  |  |
| CDK6 R144H: CDK6 mutant from COSMIC database |  | 267% |  |  |
| CDK6 R220C: CDK6 mutant from COSMIC database |  | 164% |  |  |
| B1 |  |  | R | 51% |
| B2 |  |  | A | 79% |
| B3 |  |  | A | 92% |
| B4 |  |  | N | 7.4% |
| B5 |  |  | N | 5% |
| B6 |  |  | A | 120% |
| B7 |  |  | N | 6.4% |
| B8 |  |  | A | 132% |
| B9 |  |  | A | 124% |
| B10 |  |  | R | 47% |
| B11 |  |  | R | 32% |
